Assay results published in the DeepSol protein solubility set.

Experiment: soluble on expression in E. coli; label from the status in PepcDB or PDB records

Row | Sequence | soluble on expression in E. coli
1 | MGSDKIHHHHHHMADRIEFVKNYSDLSTNKGFQFEFYCDRCGSGYRTRFKPSITGTVTGVLDTAGSLLGGLFSSAADVSERVRSASWEKSHDDAFEDACNELKPDFIQCPRCSSWVCRQKCWNKKKGLCKECAPDLGVEMAAAQASKSVEEIWAHAAMAEEDKKLGLENWRENVRASCPECEAPLASNAKFCPECGAKLKAAQFCPSCGAKVNPGSKFCAECGEKF | not soluble
2 | MGSDKIHHHHHHMTRVVIIGGSGHVGTYLVPRLVEAGYEVVNVSRGQRAAYTLNAAWKSVEPVVIDRDTEEKAGTFGEKVRALKADIVVDMISFTLDSTKQIVGALRGEVQHFLHCGTIWVYGHNTAIPATEDQPKNPFGSYGTQKAEIESWLLNEARRNGFPATVFRPGHIVGPGWEPLNPAGHFDVGVFSQIARGEPLVLPNLGNETVHHVHADDVAQMVMRAIVSWSNAVGEAFNTVSPQAINLRGYAEALYNWFGHAPRLSYEPFDTWKGKQTEENWRATWEHIARSPSHSIAKARNLLGYDPRYSSLQAVYESVEWLVANGKLSR | not soluble
3 | MDSKEVLVHVKNLEKNKSNDAAVLEILHVLDKEFVPTEKLLRETKVGVEVNKFKKSTNVEISKLVKKMISSWKDAINKNKRSRQAQQHHQDHAPGNAEDKTTVGESVNGVQ | soluble
4 | SLGGEVSGKGPAVAAREARDPLPDAGASPAPSRCCRRRSSVAFFAVCDGHGGREAAQFAREHFWGFIKKQKGFTSSEPAKVCAAIRKGFLACHLAMWKKLAEWPKTMTGLPSTSGTTASVVIIRGMKMYVAHVGDSGVVLGIQDDTKDDFVRAVEVTQDHKPELPKERERIEGLGGSVMNKSGVNRVVWKRPRLTHNGPVRRSTVIDQIPFLAVARALGDLWSYDFFSGEFVVSPEPDTSVHTLDPQKHKYIILGSDGLWNMIPPQDAISMCQDQEEKKYLMGEHGQSCAKMLVNRALGRWRQRMLRADNTSAIVICISPEVDNQGNFTNEDELYLNLTDGPSYNSQETCVMTPSPCSTPPVKSLEEDPWPRVNSKDHIPALVRSNAFSENFLEVSAEIARENVQGVVIPSKDPEPLEEN | soluble
5 | MNVNKPTTEKKLIDLNNDIIHNFDVSIVMSFYKRYTEFRKVLPHNAPYLQRNGIEVIIVLDDPDEKSELLMLLQNYPFINWKLIINERKHAPRNHASVLNVGLKHATKKYILQIDPEVEFLTDIIWQMRDAIEKYPMHYILAMMAYVPYEQELTENNIKELDFIPWGNLMVERNHLYKLHGYDETFITWGGEDNNMRARLDMSGIKKFILPEAKTIHREKNYDPNERSKRINKHSISDWRKMNYPSEAIANKDIWGSEFNKVIYDWQDNQYAKDLCYTYLQQFIGFEIRHPAAFRKRHKKIVLCQAYNEEKLIEGFLTNMANYFDGIILLDDESTDRTWDLAIHDKIILKVKKKRSGFNDLENRNILLDLSAFFQSEWFCFMDIDERFDERFTNFSEFENNKEIHVVSFRGVYLWNDEQSYKGDIPNSNKGILTVYRMFRPIGHTHINTHKKLHFIATPYFTNTWQSNILFKDYGSMKENDRIRKYERYIQEDQQKDMSSGYDYLLNSENLYQLDKIEEYLEHHHHHH | not soluble
6 | MSLGETTNLTFLRTDGQNIVTGTGEIFHIRGVTLTNNFWGNWVNGESEKLQSQGMDPIIRPLVQDAWVLTDDDFERIKDLGCNTVLYDINYQLFAEDNPNREENLKKLKEHIRRFSSMDIYTAVMLMAPPGLDSINDAYEKYKHGSERIKSVFEDDTYYEQWVEMWKYLAEELKDFKGVAGYGLINQPRAPSESEGGIGIFRERLNNVCREIRKIDKNHIIFVPEYNSREANPGESYWNEKTNSYVIDNGEQGIIWERGLVKVDSSNVVYLFHFFEPYNFVNDGVGDFDAESLEAQVRKRYEWAKNVGRAPLLTEYGISRVNSVDKRVQWLETVHDIFDKYGISASYFQYKNAVGAFINVKTGFNALYGEYVSWDSEIGLNPFYFVNEHVATSAKENHFDEALKEYYLKGKNLKKISILDNQPILETLQNFWKEGHHHHHH | soluble
7 | RVLEDLGWYVAHNIPPQIILELIDMCAREDSPVDKVAVVCDVRSREFRGSLTQVVSELRDKQLDPTVLFLEARDEVLIKRFDNVRRTHPLQGSQTLQVGIERERTVLSPVKEDASVVIDTSDLSVHDLRRAIESSFRTIATRTQHVTIESFGFKHGSPRDADFVVDVRFLPNPFWVPELRPFRGVDKPVSDYVLSQKGAEEFLNNFVDMLKDMLPGYRHEGKNFITIGVGCTGGHHRSVAVSEELAKRIADQTTLDVSVVHRDINRH | not soluble
8 | MYRAGAVLLRGATRTRLLAAASAHQSFATFSQRNQSILMMKSMELAGNSGERRFYSTHDDPIAVDDSLELYKDLGGMSPIQVPADMPNVPMLAINRYPLFPGFIKKVDIVKDDNLKALIRRQLSLKQPYAGVFVKRDDENKEETITSLSEVYPTGSFVQIIEVRDQGSVLELVLSAHRRIRALEPIDEITPKNETPLNGRRARGKRAASATSPLTPPPSPPPLAPSVASVAPEISATEEKEEKTTPPSATGEKQKKGIIMVRTENVVAEPVPKNNETKATMMAIVQTIRDVVQFNQLFGQQINLLLHPSQNVIDNPVYLCDLVATLVQSAETKDLQEMMDEIDVSKRLKIALLLIQKEKAVAKLKYDINKDVEKKVQDHHRKYLLNEQLKVIKKELGIEKDEKTTIIEKIDERIKTLAVPEYALKVINEEKTKLQFLDPHSSEFSVTRNYLEWLTSVPWGLTSPENRRLSVAKKALDEGHYGMKDVKERIMEFIAVNLLRKSIGGKILCFHGPPGVGKTSIAKSIATALNREYFRFSVGGMTDVAEIKGHRRTYVGAMPGKMIQCMKKVKTENPLVLIDEVDKIGGAGFHGDPASALLELLDPEQNANFNDHFLDVPVDLSRVLFICTANEISKIPGPLRDRMEMIDVSGYLAEEKVEIAHQHLIPQLRKDTSLATEQLKIEDSALEELIKHYCRESGVRNLQQHIERIFRKAALQIAEQQNEDEEPAEKATTAITENSEAEPITSTSSADCLKSSAEQIVVCTENLQKFVGRPKFTSDRMYEVTPPGVIMGLAWTAMGGSALYIETVLKRPVDLTNDKDGSIETTGNLGDVMKESVRTALTVAKGILAREQPDNKFFDKAHIHIHVPEGATPKDGPSAGVTLVSSLLSLALDRPVVQDMAMTGEISLTGKVLPVGGIREKVIAARRVGAKRVFLPNENRRDFDDLPEFMKSELDIRFVSHYDELYEHLFQ | not soluble
9 | MNNKTEQGNDAVSGQPSIKGQPVLGKDDAPVTVVEFGDYKCPSCKVFNSDIFPKIQKDFIDKGDVKFSFVNVMFHGKGSRLAALASEEVWKEDPDSFWDFHEKLFEKQPDTEQEWVTPGLLGDLAKSTTKIKPETLKENLDKETFASQVEKDSDLNQKMNIQATPTIYVNDKVIKNFADYDEIKETIEKELKGKLEHHHHHH | soluble
10 | MKKVQPLNPEQVKRFLETAKQDPLYPAFLLALGTGLRRGEILGLRWQDLDLQKGILQVRQSLIRTREGLKFEEPKTEKSRRQIPLPPSVVAALKRHKAWVNQNKLILGPDYEDHDLVFPVENGRPRDPKGFAEYFNRLLDKAGLPHIRLHDLRHTHATLLLLEGVHPKVVQERLGHSTVSITLDIYSHILPGLQEKAAERIDGLLQPKENPSPKEGTIKLEHHHHHH | soluble
11 | MGATEVGDENAGTVSAQPCSRQCCLEDFWALLRRHPAPEPPPWTPVLYPLRTSLPSTLAVFLNLGLSFPKTSITSSWRDWTLHLPFAWSLSVRGPSQCVHVRGGGDHIRRRGG | not soluble
12 | MTIQTVIKENAYFDSVTLMTISTRANELAGVKTAMIGMGTDMNLEVIRNVGLYTPALDHVTTGDLLIVLDLDDQANSEEILQQVDELFTKKKKTASSEVTYKTLDSALHEEPDANLVVISVNGKFAAREAHKALDQQKHVMLFSDNVTVDEELALKQKAHEKELFVMGPDCGTAIINGVGLCFANEVRSGDIGIVGASGTGSQEVSVQIHKYGYGISQLIGTGGRDLSAEIGGLMMLDGLDTLMVDEQTKAILLISKPPAPEVTEKILKKLAVSTKPVVIYFIGSEQTERKIDNVTFATSSLDAVQKVIQFSQTQEAETSLYQNPTGATLTAIQQQQAPSQKFVRGLFCGGTLCDELLYALTEVSDDVYSNIHKISERQLANPDHSQAHTLIDFGDDRFTEGRPHPMIDPTSRITRILQEAKDPEVAVLALDFELGYGSHENPVGVLAEALKEAKAIAKADGRELAIIGYVLGTEEDPQDIHEQRKILEDLEVLVVDSSHQLCEATKTFVKGANEHEQK | not soluble
